Assay results from patent publication US7657380.

T1: CD30 fused to the Fc region of IgG1 (R&D Systems) (UniProt P28908 19-379)
T1 sequence (looked up): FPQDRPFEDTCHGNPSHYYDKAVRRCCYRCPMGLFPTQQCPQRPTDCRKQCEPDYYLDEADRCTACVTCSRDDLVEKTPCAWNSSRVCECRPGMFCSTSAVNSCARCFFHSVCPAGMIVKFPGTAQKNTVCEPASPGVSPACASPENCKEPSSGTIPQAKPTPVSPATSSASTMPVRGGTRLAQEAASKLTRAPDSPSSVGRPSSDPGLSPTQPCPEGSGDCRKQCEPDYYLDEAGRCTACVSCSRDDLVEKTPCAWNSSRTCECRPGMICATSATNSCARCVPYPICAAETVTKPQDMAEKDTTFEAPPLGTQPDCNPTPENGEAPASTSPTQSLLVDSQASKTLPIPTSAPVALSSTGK

T2: human CD30 (commercial, conjugated to digoxigenin) (human, UniProt P28908 19-379, limits assumed, conjugated to digoxigenin (DIG))
T2 sequence (looked up): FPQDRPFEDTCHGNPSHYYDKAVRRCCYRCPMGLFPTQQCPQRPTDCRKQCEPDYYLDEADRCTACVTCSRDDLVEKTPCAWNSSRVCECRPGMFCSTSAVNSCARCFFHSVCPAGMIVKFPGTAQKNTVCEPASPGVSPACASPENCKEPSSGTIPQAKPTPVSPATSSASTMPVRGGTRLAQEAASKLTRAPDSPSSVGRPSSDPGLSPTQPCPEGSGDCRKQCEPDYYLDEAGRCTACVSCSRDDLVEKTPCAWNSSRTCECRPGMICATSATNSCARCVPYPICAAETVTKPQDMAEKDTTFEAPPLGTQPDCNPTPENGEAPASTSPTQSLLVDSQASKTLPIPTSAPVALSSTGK


Legend:
[1] = target: T1, CD30 fused to the Fc region of IgG1 …; test: SPR, CD30-Fc on Protein A chip
[2] = target: T2, human CD30 (commercial, conjugated to …); test: AlphaScreen competition vs biotin-WT AC10
[3] = target: T2, human CD30 (commercial, conjugated to …); test: AlphaScreen competition

| Binder | Fold KD vs WT [1] [fold] | Kd [1] [nM] | Fold IC50 vs WT [2] [fold] | IC50 [2] [nM] | Fold IC50 vs H3/L3 [3] [fold] |
| --- | --- | --- | --- | --- | --- |
| AC10 H2/L1 full length antibody (antibody, V domains shown) VH: QIQLVESGGGLVKPGGSLRLSCAASGYTFTDYYITWVRQAPGQGLEWMGWIYPGSGNTKYNEKFQGRVTMTVDTSTSTAYMELSSLRSEDTAVYFCANYGNYWFAYWGQGTLVTVSS VL: DIVLTQSPATLSLSPGERATLSCRASQSVDFDGDSYMNWYQQKPGQPPKVLIYAASNLESGIPARFSGSGSGTDFTLTISSLQPEDFATYYCQQSNEDPWTFGGGTKVEIK | 0.36 | 9.49 | 0.06 | 55.1 | – |
| AC10 H0/L2 full length antibody (antibody, V domains shown) VH: QIQLQQSGPEVVKPGASVKISCKASGYTFTDYYITWVKQKPGQGLEWIGWIYPGSGNTKYNEKFKGKATLTVDTSSSTAFMQLSSLTSEDTAVYFCANYGNYWFAYWGQGTQVTVSA VL: DIVLTQSPSSLSASVGDRVTITCRASQSVDFDGDSYMNWYQQKPGQPPKVLIYAASNLESGIPARFSGSGSGTDFTLTISSLQPEDFATYYCQQSNEDPWTFGGGTKVEIK | 0.97 | 3.48 | 0.41 | 7.81 | – |
| AC10 H1/L3 full length antibody (antibody, V domains shown) VH: QIQLVQSGPEVKKPGASVKVSCKASGYTFTDYYITWVRQAPGQGLEWMGWIYPGSGNTKYNEKFQGRVTITVDTSASTAYMELSSLRSEDTAVYFCANYGNYWFAYWGQGTLVTVSS VL: DIVLTQSPDSLAVSLGERATINCKASQSVDFDGDSYMNWYQQKPGQPPKVLIYAASNLESGIPARFSGSGSGTDFTLTINSLEAEDAATYYCQQSNEDPWTFGGGTKVEIK | 0.67 | 5.09 | 0.18 | 17.4 | – |
| AC10 H3/L3 full length antibody (antibody, V domains shown) VH: QIQLVQSGPEVKKPGASVKVSCKASGYTFTDYYITWVRQAPGQGLEWMGWIYPGSGNTKYNEKFQGRFVFSVDTSASTAYLQISSLKAEDTAVYFCANYGNYWFAYWGQGTLVTVSS VL: DIVLTQSPDSLAVSLGERATINCKASQSVDFDGDSYMNWYQQKPGQPPKVLIYAASNLESGIPARFSGSGSGTDFTLTINSLEAEDAATYYCQQSNEDPWTFGGGTKVEIK | 1.45 | 2.33 | 1.59 | 1.99 | – |
| AC10 H2/L0 full length antibody (antibody, V domains shown) VH: QIQLVESGGGLVKPGGSLRLSCAASGYTFTDYYITWVRQAPGQGLEWMGWIYPGSGNTKYNEKFQGRVTMTVDTSTSTAYMELSSLRSEDTAVYFCANYGNYWFAYWGQGTLVTVSS VL: DIVLTQSPASLAVSLGQRATISCKASQSVDFDGDSYMNWYQQKPGQPPKVLIYAASNLESGIPARFSGSGSGTDFTLNIHPVEEEDAATYYCQQSNEDPWTFGGGTKLEIK | 0.42 | 8 | 0.16 | 19.4 | – |
| AC10 H3/L3.64 (antibody, IgG1, name in Kabat numbering, V domains shown) VH: QIQLVQSGPEVKKPGASVKVSCKASGYTFTDYYITWVRQAPGQGLEWMGWIYPGSGNTKYNEKFQGRFVFSVDTSASTAYLQISSLKAEDTAVYFCANYGNYWFAYWGQGTLVTVSS VL: DIVLTQSPDSLAVSLGERATINCKASQSVDFDGDSYMNWYQQKPGQPPKVLIYAASNLESGIPARFSGSGSGTDFTLTINSLEAEDAATYYCQQSNETPWTFGGGTKVEIK | – | – | – | – | 0.14 |
| AC10 H3/L2 full length antibody (antibody, V domains shown) VH: QIQLVQSGPEVKKPGASVKVSCKASGYTFTDYYITWVRQAPGQGLEWMGWIYPGSGNTKYNEKFQGRFVFSVDTSASTAYLQISSLKAEDTAVYFCANYGNYWFAYWGQGTLVTVSS VL: DIVLTQSPSSLSASVGDRVTITCRASQSVDFDGDSYMNWYQQKPGQPPKVLIYAASNLESGIPARFSGSGSGTDFTLTISSLQPEDFATYYCQQSNEDPWTFGGGTKVEIK | 1.19 | 2.86 | 0.48 | 6.57 | – |
| AC10 H1/L2 full length antibody (antibody, V domains shown) VH: QIQLVQSGPEVKKPGASVKVSCKASGYTFTDYYITWVRQAPGQGLEWMGWIYPGSGNTKYNEKFQGRVTITVDTSASTAYMELSSLRSEDTAVYFCANYGNYWFAYWGQGTLVTVSS VL: DIVLTQSPSSLSASVGDRVTITCRASQSVDFDGDSYMNWYQQKPGQPPKVLIYAASNLESGIPARFSGSGSGTDFTLTISSLQPEDFATYYCQQSNEDPWTFGGGTKVEIK | 0.45 | 7.55 | 0.07 | 45.3 | – |
| AC10 H3/L3.63 (antibody, IgG1, name in Kabat numbering, V domains shown) VH: QIQLVQSGPEVKKPGASVKVSCKASGYTFTDYYITWVRQAPGQGLEWMGWIYPGSGNTKYNEKFQGRFVFSVDTSASTAYLQISSLKAEDTAVYFCANYGNYWFAYWGQGTLVTVSS VL: DIVLTQSPDSLAVSLGERATINCKASQSVDFDGDSYMNWYQQKPGQPPKVLIYAASNLESGIPARFSGSGSGTDFTLTINSLEAEDAATYYCQQSNESPWTFGGGTKVEIK | – | – | – | – | 0.57 |
| AC10 H3/L3.66 (antibody, IgG1, name in Kabat numbering, V domains shown) VH: QIQLVQSGPEVKKPGASVKVSCKASGYTFTDYYITWVRQAPGQGLEWMGWIYPGSGNTKYNEKFQGRFVFSVDTSASTAYLQISSLKAEDTAVYFCANYGNYWFAYWGQGTLVTVSS VL: DIVLTQSPDSLAVSLGERATINCKASQSVDFDGDSYMNWYQQKPGQPPKVLIYAASNLESGIPARFSGSGSGTDFTLTINSLEAEDAATYYCQQSNEDPITFGGGTKVEIK | – | – | – | – | 0 |
| AC10 H3/L3.60 (antibody, IgG1, name in Kabat numbering, V domains shown) VH: QIQLVQSGPEVKKPGASVKVSCKASGYTFTDYYITWVRQAPGQGLEWMGWIYPGSGNTKYNEKFQGRFVFSVDTSASTAYLQISSLKAEDTAVYFCANYGNYWFAYWGQGTLVTVSS VL: DIVLTQSPDSLAVSLGERATINCKASQSVDFDGDSYMNWYQQKPGQPPKVLIYAASNLESGIPARFSGSGSGTDFTLTINSLEAEDAATYYCQQSNEFPWTFGGGTKVEIK | – | – | – | – | 0.02 |
| AC10 H3/L0 full length antibody (antibody, V domains shown) VH: QIQLVQSGPEVKKPGASVKVSCKASGYTFTDYYITWVRQAPGQGLEWMGWIYPGSGNTKYNEKFQGRFVFSVDTSASTAYLQISSLKAEDTAVYFCANYGNYWFAYWGQGTLVTVSS VL: DIVLTQSPASLAVSLGQRATISCKASQSVDFDGDSYMNWYQQKPGQPPKVLIYAASNLESGIPARFSGSGSGTDFTLNIHPVEEEDAATYYCQQSNEDPWTFGGGTKLEIK | 1.1 | 3.08 | 0.51 | 6.18 | – |
| AC10 H1/L1 full length antibody (antibody, V domains shown) VH: QIQLVQSGPEVKKPGASVKVSCKASGYTFTDYYITWVRQAPGQGLEWMGWIYPGSGNTKYNEKFQGRVTITVDTSASTAYMELSSLRSEDTAVYFCANYGNYWFAYWGQGTLVTVSS VL: DIVLTQSPATLSLSPGERATLSCRASQSVDFDGDSYMNWYQQKPGQPPKVLIYAASNLESGIPARFSGSGSGTDFTLTISSLQPEDFATYYCQQSNEDPWTFGGGTKVEIK | 0.6 | 5.63 | 0.11 | 27.7 | – |
| AC10 H3/L1 full length antibody (antibody, V domains shown) VH: QIQLVQSGPEVKKPGASVKVSCKASGYTFTDYYITWVRQAPGQGLEWMGWIYPGSGNTKYNEKFQGRFVFSVDTSASTAYLQISSLKAEDTAVYFCANYGNYWFAYWGQGTLVTVSS VL: DIVLTQSPATLSLSPGERATLSCRASQSVDFDGDSYMNWYQQKPGQPPKVLIYAASNLESGIPARFSGSGSGTDFTLTISSLQPEDFATYYCQQSNEDPWTFGGGTKVEIK | 1.39 | 2.44 | 0.52 | 6.09 | – |
| AC10 H2/L3 full length antibody (antibody, V domains shown) VH: QIQLVESGGGLVKPGGSLRLSCAASGYTFTDYYITWVRQAPGQGLEWMGWIYPGSGNTKYNEKFQGRVTMTVDTSTSTAYMELSSLRSEDTAVYFCANYGNYWFAYWGQGTLVTVSS VL: DIVLTQSPDSLAVSLGERATINCKASQSVDFDGDSYMNWYQQKPGQPPKVLIYAASNLESGIPARFSGSGSGTDFTLTINSLEAEDAATYYCQQSNEDPWTFGGGTKVEIK | 0.5 | 6.75 | 0.12 | 27.2 | – |
| AC10 H1/L0 full length antibody (antibody, V domains shown) VH: QIQLVQSGPEVKKPGASVKVSCKASGYTFTDYYITWVRQAPGQGLEWMGWIYPGSGNTKYNEKFQGRVTITVDTSASTAYMELSSLRSEDTAVYFCANYGNYWFAYWGQGTLVTVSS VL: DIVLTQSPASLAVSLGQRATISCKASQSVDFDGDSYMNWYQQKPGQPPKVLIYAASNLESGIPARFSGSGSGTDFTLNIHPVEEEDAATYYCQQSNEDPWTFGGGTKLEIK | 0.53 | 6.39 | 0.32 | 9.77 | – |
| AC10 H3/L3.62 (antibody, IgG1, name in Kabat numbering, V domains shown) VH: QIQLVQSGPEVKKPGASVKVSCKASGYTFTDYYITWVRQAPGQGLEWMGWIYPGSGNTKYNEKFQGRFVFSVDTSASTAYLQISSLKAEDTAVYFCANYGNYWFAYWGQGTLVTVSS VL: DIVLTQSPDSLAVSLGERATINCKASQSVDFDGDSYMNWYQQKPGQPPKVLIYAASNLESGIPARFSGSGSGTDFTLTINSLEAEDAATYYCQQSNELPWTFGGGTKVEIK | – | – | – | – | 0.46 |
| AC10 H3/L3.65 (antibody, IgG1, name in Kabat numbering, V domains shown) VH: QIQLVQSGPEVKKPGASVKVSCKASGYTFTDYYITWVRQAPGQGLEWMGWIYPGSGNTKYNEKFQGRFVFSVDTSASTAYLQISSLKAEDTAVYFCANYGNYWFAYWGQGTLVTVSS VL: DIVLTQSPDSLAVSLGERATINCKASQSVDFDGDSYMNWYQQKPGQPPKVLIYAASNLESGIPARFSGSGSGTDFTLTINSLEAEDAATYYCQQSNEDPFTFGGGTKVEIK | – | – | – | – | 0.34 |
